Here are results for 125 sequences from the supplement of paper PMC9112550, “Optimization of the antimicrobial peptide Bac7 by deep mutational scanning” (BMC Biology, 2022).

The subject of the data set is Escherichia coli TOP10. Kind of data set: shrunken log2 fold change of peptide-encoding DNA abundance (4.5 h post-induction vs induction); higher = less antimicrobial activity (less host growth inhibition). Conditions: time post-induction: 4.5 h; library: site-saturation at positions 5, 18, 19, 20.
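Further: peptides expressed intracellularly from a pBAD plasmid library in pooled LB shake-flask culture, induced with 0.3% L-arabinose, DNA abundance read by NGS, three biological replicates, DESeq2 with apeglm shrinkage.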

For the sequence RRIRRRPPRLPRPRPRPKEGPRP, the “shrunken log2 fold change” value is -0.000243. With RRIRPRPPRLPRPRPRPGFWPRP the figure was 0.61; with RRIRKRPPRLPRPRPRPKETPRP, 0.35; with RRIRRRPPRLPRPRPRPMKCPRP, -0.0984. With RRIRIRPPRLPRPRPRPCYWPRP the figure was -0.131; with RRIRKRPPRLPRPRPRPQWTPRP, 0.0894; with RRIRYRPPRLPRPRPRPCGTPRP, -0.193. As to RRIRIRPPRLPRPRPRPKELPRP, the “shrunken log2 fold change” value is -0.563.

With RRIRQRPPRLPRPRPRPSHKPRP, the “shrunken log2 fold change” value is -0.0927.

Turning to RRIRCRPPRLPRPRPRPFAYPRP, the “shrunken log2 fold change” value turned out to be 0.00718. For RRIRDRPPRLPRPRPRPTCEPRP the value was 0.705; for RRIRGRPPRLPRPRPRPCDMPRP, 0.22; for RRIRLRPPRLPRPRPRPCCRPRP, 0.0477. With RRIRSRPPRLPRPRPRPKARPRP the figure was 0.0932; with RRIRHRPPRLPRPRPRPCVLPRP, -0.14. With RRIRDRPPRLPRPRPRPWFHPRP the figure was -0.00884; with RRIRIRPPRLPRPRPRPNLVPRP, -0.175. As to RRIRSRPPRLPRPRPRPVGPPRP, the “shrunken log2 fold change” value amounted to 0.373. For RRIRYRPPRLPRPRPRPMLWPRP the value was -0.0139; for RRIRMRPPRLPRPRPRPTDSPRP, 0.0971; for RRIRSRPPRLPRPRPRPQAHPRP, -0.0418. For RRIRSRPPRLPRPRPRPLNPPRP the value was -0.0273. For RRIRIRPPRLPRPRPRPLQFPRP the value was -0.0429. As for RRIRKRPPRLPRPRPRPVSAPRP, the “shrunken log2 fold change” value stood at 0.887. Consider RRIRNRPPRLPRPRPRPLFPPRP, for which the “shrunken log2 fold change” value was determined as 0.643. With RRIRVRPPRLPRPRPRPFANPRP the figure was -0.0887. Take RRIRGRPPRLPRPRPRPVEHPRP: the “shrunken log2 fold change” value was determined as 0.117. For RRIRERPPRLPRPRPRPPNQPRP the value was -0.118; for RRIRMRPPRLPRPRPRPHPLPRP, 0.37. On to RRIRKRPPRLPRPRPRPVYMPRP, for which the “shrunken log2 fold change” value is -0.082. For RRIRMRPPRLPRPRPRPQCVPRP the value was 0.039; for RRIRLRPPRLPRPRPRPLNNPRP, -0.593.

RRIRSRPPRLPRPRPRPESYPRP: the “shrunken log2 fold change” value worked out at 1.29. With RRIRMRPPRLPRPRPRPGEPPRP the figure was 0.163. RRIRTRPPRLPRPRPRPVREPRP: the “shrunken log2 fold change” value is 0.139. Take RRIRIRPPRLPRPRPRPVCQPRP: the “shrunken log2 fold change” value is -0.202. With RRIRFRPPRLPRPRPRPQFMPRP the figure was -1.06. For RRIRERPPRLPRPRPRPMNMPRP the value was -0.176. As for RRIRSRPPRLPRPRPRPDRKPRP, the “shrunken log2 fold change” value is -0.0693.

In the case of RRIRSRPPRLPRPRPRPIVPPRP, the “shrunken log2 fold change” value was -0.0492. For RRIRYRPPRLPRPRPRPFDNPRP the value was 0.0112. With RRIRFRPPRLPRPRPRPMKWPRP the figure was -0.0607; with RRIRWRPPRLPRPRPRPQIYPRP, -0.000758. Turning to RRIRVRPPRLPRPRPRPADNPRP, the “shrunken log2 fold change” value is -0.0365. With RRIRPRPPRLPRPRPRPNGNPRP the figure was -0.144; with RRIRSRPPRLPRPRPRPDIHPRP, -1.3; with RRIRLRPPRLPRPRPRPLRYPRP, -0.0797. For the sequence RRIRNRPPRLPRPRPRPGEKPRP, the “shrunken log2 fold change” value was -0.01.

Take RRIRIRPPRLPRPRPRPIVKPRP: the “shrunken log2 fold change” value was -0.0118.

On to RRIRSRPPRLPRPRPRPKIVPRP, for which the “shrunken log2 fold change” value was -0.265. For RRIRIRPPRLPRPRPRPMTIPRP the value was -1.16; for RRIRFRPPRLPRPRPRPEKDPRP, -0.227.

Consider RRIRCRPPRLPRPRPRPIYKPRP, for which the “shrunken log2 fold change” value is -0.559.

RRIRCRPPRLPRPRPRPESFPRP: the “shrunken log2 fold change” value was determined as 0.0159. For RRIRHRPPRLPRPRPRPPGCPRP the value was 0.184.

Consider RRIRLRPPRLPRPRPRPISHPRP, for which the “shrunken log2 fold change” value was -0.137. For RRIRMRPPRLPRPRPRPHTRPRP the value was 0.387; for RRIRYRPPRLPRPRPRPVPWPRP, 0.277; for RRIRSRPPRLPRPRPRPQNVPRP, -0.209. Take RRIRNRPPRLPRPRPRPLCFPRP: the “shrunken log2 fold change” value was -0.461.

With RRIRGRPPRLPRPRPRPASDPRP, the “shrunken log2 fold change” value came to 0.987. For RRIRMRPPRLPRPRPRPRQPPRP, the “shrunken log2 fold change” value turned out to be 0.805.

For RRIRSRPPRLPRPRPRPIIWPRP, the “shrunken log2 fold change” value is -0.174. In the case of RRIRKRPPRLPRPRPRPESTPRP, the “shrunken log2 fold change” value was 1.38.

With RRIRDRPPRLPRPRPRPMHAPRP, the “shrunken log2 fold change” value amounted to 0.121. With RRIRMRPPRLPRPRPRPMWGPRP the figure was 0.285.

RRIRLRPPRLPRPRPRPYHRPRP: the “shrunken log2 fold change” value was determined as 0.0373. For RRIRRRPPRLPRPRPRPFREPRP the value was 0.163; for RRIRKRPPRLPRPRPRPQIIPRP, 0.0891. For RRIRSRPPRLPRPRPRPEAIPRP the value was 0.748. In the case of RRIRHRPPRLPRPRPRPDEAPRP, the “shrunken log2 fold change” value is -0.0728. With RRIRVRPPRLPRPRPRPKCQPRP the figure was 0.106; with RRIRSRPPRLPRPRPRPNHQPRP, -0.139; with RRIRHRPPRLPRPRPRPLKSPRP, -0.178. With RRIRSRPPRLPRPRPRPVFRPRP the figure was -0.113; with RRIRIRPPRLPRPRPRPPCQPRP, 0.0801; with RRIRFRPPRLPRPRPRPSKHPRP, 0.0257. For RRIRMRPPRLPRPRPRPAPKPRP the value was 0.675; for RRIRLRPPRLPRPRPRPELHPRP, 0.327.

Turning to RRIRARPPRLPRPRPRPETNPRP, the “shrunken log2 fold change” value came to 1.01. Turning to RRIRTRPPRLPRPRPRPNTKPRP, the “shrunken log2 fold change” value was -0.337. With RRIRCRPPRLPRPRPRPNYRPRP the figure was -0.077. For RRIRVRPPRLPRPRPRPPTSPRP the value was 0.101. Turning to RRIRYRPPRLPRPRPRPSPKPRP, the “shrunken log2 fold change” value is -0.105. With RRIRERPPRLPRPRPRPWVFPRP the figure was -0.0105; with RRIRARPPRLPRPRPRPTTVPRP, 0.45. With RRIRYRPPRLPRPRPRPICAPRP the figure was -0.211.

In the case of RRIRDRPPRLPRPRPRPCWRPRP, the “shrunken log2 fold change” value came to 0.101. For the sequence RRIRYRPPRLPRPRPRPMNMPRP, the “shrunken log2 fold change” value was -0.139. For RRIRNRPPRLPRPRPRPQLYPRP, the “shrunken log2 fold change” value is -0.206. On to RRIRFRPPRLPRPRPRPFRRPRP, for which the “shrunken log2 fold change” value was -0.0629. With RRIRGRPPRLPRPRPRPTPQPRP the figure was 1.05.

Regarding RRIRGRPPRLPRPRPRPWEEPRP, the “shrunken log2 fold change” value was -0.0105. With RRIRYRPPRLPRPRPRPNWTPRP the figure was -0.00491. For RRIRPRPPRLPRPRPRPMALPRP the value was -0.0509; for RRIRHRPPRLPRPRPRPRYDPRP, -0.0205. For RRIRSRPPRLPRPRPRPSYMPRP the value was -1.1; for RRIRGRPPRLPRPRPRPQTEPRP, 0.149. Take RRIRQRPPRLPRPRPRPFIEPRP: the “shrunken log2 fold change” value is -0.0062. Take RRIRARPPRLPRPRPRPSDNPRP: the “shrunken log2 fold change” value is -0.183. With RRIRDRPPRLPRPRPRPQWTPRP the figure was 0.448. With RRIRLRPPRLPRPRPRPKRPPRP the figure was -0.0353; with RRIRLRPPRLPRPRPRPSLKPRP, 0.0368; with RRIRWRPPRLPRPRPRPGWIPRP, 0.207. For RRIRKRPPRLPRPRPRPWAEPRP, the “shrunken log2 fold change” value is 0.0785. With RRIRPRPPRLPRPRPRPALLPRP the figure was 0.0603. With RRIRTRPPRLPRPRPRPDYVPRP the figure was -0.0882; with RRIRCRPPRLPRPRPRPRENPRP, 0.439; with RRIRYRPPRLPRPRPRPNSIPRP, -0.737. For RRIRKRPPRLPRPRPRPWEFPRP the value was 0.504. Consider RRIRPRPPRLPRPRPRPYVWPRP, for which the “shrunken log2 fold change” value is -0.365. For RRIRTRPPRLPRPRPRPCHPPRP the value was -0.0634.

Take RRIRARPPRLPRPRPRPAHCPRP: the “shrunken log2 fold change” value turned out to be 0.433. For RRIRNRPPRLPRPRPRPRPSPRP the value was 0.443; for RRIRIRPPRLPRPRPRPLNYPRP, -0.384. For RRIRQRPPRLPRPRPRPRPTPRP the value was 0.554. For RRIRPRPPRLPRPRPRPHIAPRP the value was -0.392; for RRIRMRPPRLPRPRPRPQRRPRP, 0.799; for RRIRTRPPRLPRPRPRPEGNPRP, -0.311. As to RRIRQRPPRLPRPRPRPKCTPRP, the “shrunken log2 fold change” value is -0.0317. With RRIRHRPPRLPRPRPRPHYWPRP the figure was -0.588; with RRIRFRPPRLPRPRPRPCVCPRP, 0.143. On to RRIRRRPPRLPRPRPRPVYQPRP, for which the “shrunken log2 fold change” value was -0.384.

Consider RRIRGRPPRLPRPRPRPWFHPRP, for which the “shrunken log2 fold change” value is -0.121.

In the case of RRIRPRPPRLPRPRPRPCNAPRP, the “shrunken log2 fold change” value is -0.179.
